Tests used:
[1] = Binding affinity to FGFR
[2] = test system: Nc1ncnc2c1ncn2[C@@H]1O[C@H](COP(=O)(O)OP(=O)(O)O)[C@@H](O)[C@H]1O; conditions: Saccharomyces cerevisiae
Description: Binding affinity to yeast Hsp90

[3] = test system: Nc1ncnc2c1ncn2[C@@H]1O[C@H](COP(=O)(O)OP(=O)(O)OP(=O)(O)O)[C@@H](O)[C@H]1O; assay: Binding affinity to CDK2/cyclin E; type: protein-complex assay

Question: Which Km [1] does the source give for Nc1ncnc2c1ncn2[C@@H]1O[C@H](COP(=O)(O)OP(=O)(O)OP(=O)(O)O)[C@@H](O)[C@H]1O here?
Answer: The Km was 70 µM.

Question: Which Km [2] does the source give for “ATP-dependent molecular chaperone HSP82 (Saccharomyces cerevisiae S288c), P02829” here?
Answer: The Km was 150 µM.

Question: With “Cyclin-dependent kinase 2/cyclin E (Homo sapiens) (from UniProt P24864+P24941+O96020)” as the molecule, how does the Km [3] read?
Answer: The Km was 3.6 µM.
